Source: the DeepSol protein solubility set

Test: soluble on expression in E. coli; label from the status in PepcDB or PDB records

Sequence	soluble on expression in E. coli
MHHHHHHSSGLVPRGSGMKETAAAKFERQHMDSPDLGTDDDDKAMAGTPSKPAEPIGPVFTKLKPWQIPKRDWFDKDFLFGASTSAYQIEGAWNEDGKGPSTWDHFCHTYPERISDMTNGDVAANSYHLYEEDVKALKDMGMKVYRFSISWSRILPDGTGKVNQAGIDYYNKLINSLIDNDIVPYVTIWHWDTPQALEDKYGGFLNRQIVDDYKQFAEVCFKNFGDRVKNWFTFNEPHTYCCFSYGEGIHAPGRCSPGMDCAVPEGDSLREPYTAGHHILLAHAEAVQLFKARYNMHGDSKIGMAFDVMGYEPYQDSFLDDQARERSIDYNMGWFLEPVVRGDYPFSMRSLIGDRLPMFTKEEQEKLASSCDIMGLNYYTSRFSKHVDMSPDFTPTLNTDDAYASSETTGSDGNDIGPITGTYWIYMYPKGLTDLLLIMKEKYGNPPVFITENGIADVEGDESMPDPLDDWKRLDYLQRHISAVKDAIDQGADVRGHFTWGLIDNFEWSLGYSSRFGLVYIDKNDGNKRKLKKSAKWFSKFNSVPKPLLKTTNNNATMTAASVSV	soluble
MHHHHHHSSGRENLYFQGSTKGDINQYYTLENTIGRGSWGEVKIAVQKGTRIRRAAKKIPKYFVEDVDRFKQEIEIMKSLDHPNIIRLYETFEDNTDIYLVMELCTGGELFERVVHKRVFRESDAARIMKDVLSAVAYCHKLNVAHRDLKPENFLFLTDSPDSPLKLIDFGLAARFKPGKMMRTKVGTPYYVSPQVLEGLYGPECDEWSAGVMMYVLLCGYPPFSAPTDSEVMLKIREGTFTFPEKDWLNVSPQAESLIRRLLTKSPKQRITSLQALEHEWFEKQLSSSPRNLL	soluble
MHHHHHHSSGRENLYFQGTLSALAVDLGGTNLRVAIVSMKGEIVKKYTQFNPKTYEERINLILQMCVEAAAEAVKLNCRILGVGISTGGRVNPREGIVLHSTKLIQEWNSVDLRTPLSDTLHLPVWVDNDGNCAALAERKFGQGKGLENFVTLITGTGIGGGIIHQHELIHGSSFCAAELGHLVVSLDGPDCSCGSHGCIEAYASGMALQREAKKLHDEDLLLVEGMSVPKDEAVGALHLIQAAKLGNAKAQSILRTAGTALGLGVVNILHTMNPSLVILSGVLASHYIHIVKDVIRQQALSSVQDVDVVVSDLVDPALLGAASMVLDYTTRR	soluble
MHHHHHHSSGVDLGTENLYFQSMARLPKLAVFDLDYTLWPFWVDTHVDPPFHKSSDGTVRDRRGQDVRLYPEVPEVLKRLQSLGVPGAAASRTSEIEGANQLLELFDLFRYFVHREIYPGSKITHFERLQQKTGIPFSQMIFFDDERRNIVDVSKLGVTCIHIQNGMNLQTLSQGLETFAKAQTGPL	soluble
MHHHHHHSSGVDLGTENLYFQSMCAAQMPPLAHIFRGTFVHSTWTCPMEVLRDHLLGVSDSGKIVFLEEASQQEKLAKEWCFKPCEIRELSHHEFFMPGLVDTHIHASQYSFAGSSIDLPLLEWLTKYTFPAEHRFQNIDFAEEVYTRVVRRTLKNGTTTACYFATIHTDSSLLLADITDKFGQRAFVGKVCMDLNDTFPEYKETTEESIKETERFVSEMLQKNYSRVKPIVTPRFSLSCSETLMGELGNIAKTRDLHIQSHISENRDEVEAVKNLYPSYKNYTSVYDKNNLLTNKTVMAHGCYLSAEELNVFHERGASIAHCPNSNLSLSSGFLNVLEVLKHEVKIGLGTDVAGGYSYSMLDAIRRAVMVSNILLINKVNEKSLTLKEVFRLATLGGSQALGLDGEIGNFEVGKEFDAILINPKASDSPIDLFYGDFFGDISEAVIQKFLYLGDDRNIEEVYVGGKQVVPFSSSV	soluble
MHHHHHHSSGVDLGTENLYFQSMGEVVMSQAIQPAHATARGELSAGQLLKWIDTTACLAAEKHAGVSCVTASVDDIQFEETARVGQVITIKAKVTRAFSTSMEISIKVMVQDMLTGIEKLVSVAFSTFVAKPVGKEKIHLKPVTLLTEQDHVEHNLAAERRKVRLQHEDTFNNLMKESSKFDDLIFDEEEGAVSTRGTSVQSIELVLPPHANHHGNTFGGQIMAWMETVATISASRLCWAHPFLKSVDMFKFRGPSTVGDRLVFTAIVNNTFQTCVEVGVRVEAFDCQEWAEGRGRHINSAFLIYNAADDKENLITFPRIQPISKDDFRRYRG	soluble
MHHHHHHSSGVDLGTENLYFQSMKICSIALVGKYTKLRDCYASVFKALEHSALAINHKLNLMYIDSIDLEKITETEDPVKFHEAWQKLCKADGILVPGGFGIRGTLGKLQAISWARTKKIPFLGVCLGMQLAVIEFARNCLNLKDADSTEFRPNAPVPLVIDMPEHNPGNLGGTMRLGIRRTVFKTENSILRKLYGDVPFIEERHRHRFEVNPNLIKQFEQNDLSFVGQDVDGDRMEIIELANHPYFVGVQFHPEFSSRPMKPSPPYLGLLLAATGNLNAYLQQGCKLS	soluble
MHHHHHHSSGVDLGTENLYFQSMQRGYLLTRNPHLNKDLAFTLEERQQLNIHGLLPPSFNSQEIQVLRVVKNFEHLNSDFDRYLLLMDLQDRNEKLFYRVLTSDIEKFMPIVYTPTVGLACQQYSLVFRKPRGLFITIHDRGHIASVLNAWPEDVIKAIVVTDGERILGLGDLGCNGMGIPVGKLALYTACGGMNPQECLPVILDVGTENEELLKDPLYIGLRQRRVRGSEYDDFLDEFMEAVSSKYGMNCLIQFEDFANVNAFRLLNKYRNQYCTFNDDIQGTASVAVAGLLAALRITKNKLSDQTILFQGAGEAALGIAHLIVMALEKEGLPKEKAIKKIWLVDSKGLIVKGRASLTQEKEKFAHEHEEMKNLEAIVQEIKPTALIGVAAIGGAFSEQILKDMAAFNERPIIFALSNPTSKAECSAEQCYKITKGRAIFASGSPFDPVTLPNGQTLYPGQGNNSYVFPGVALGVVACGLRQITDNIFLTTAEVIAQQVSDKHLEEGRLYPPLNTIRDVSLKIAEKIVKDAYQEKTATVYPEPQNKEAFVRSQMYSTDYDQILPDCYSWPEEVQ	soluble
MHHHHHHSSGVDLGTENLYFQSNAMANPLYHKHIISINDLSRDELELVLRTAASLKKTPQPELLKHKVIASCFFEASTRTRLSFETSIHRLGASVVGFSDSSNTSLGKKGETLADTMSVISTYVDAIVMRHPQEGASRLAAQFSGNVPIVNAGDGANQHPTQTLLDLFTIQETQGRLDNINIAMVGDLKYGRTVHSLTQALAKFNGNHFFFIAPDALAMPAYILQMLEEKEIEYSLHESLEEVVPELDILYMTRVQKERLDPSEYANVKAQFILRSSDLTGARDNLKVLHPLPRIDEITTDVDKTPYAYYFQQAGNGIFARQALLALVLNAELAL	soluble
MHIERLDFENSPYLGVFGVATDRVVLIREGLQEKKLEVIRETLKVPVIEVSVMKSRIIGTLATGNSNAIILPWYVWDAEIERIKKALSEYGIDMEVVPFRSKYTALGNLILTNDKAALVSAKFSRKEAQEIGEILGVEVERGVIAGLHAVGSAGVVTNKGGLVHPETSDEELEWLSDLFKVDVYVGTANMGVPYVGTCMLANSNGVVVGHLTTGPEIVKIEEALGFV	soluble
MHIHILGICGTFMGGVAMLARQLGHKVTGSDANVYPPMSTMLEAQGIEIIEGFDPVQLEPKPDLVVIGNAMSRGNPCVEYVLNHNLRYTSGPQWLQDFLLHDRWVIAVSGTHGKTTTSSMIAWVLEHCGYQPGFLVGGVLGNFGISARLGESMFFVVEADEYDSAFFDKRSKFVHYHPRTLVMNNLEFDHADIFDNLEAIKRQFHHLVRTVPGNGRILAPKQDEALADVLQRGCWSETEFSGEQGEWQAEKITADGSQFHVLLKGERVGQVNWSLVGDHNVSNALMAIAAARHVGVAPELACEALGLFVNTKRRLELKGEINGVTVYDDFAHHPTAIELTLGGLRNKVGDKKIIAVLEPRSATMKLGVHKETLAASLHSADSVYLYQPSNIPWSVEEVAKQCQQPAQVSANMDEFVAMIAKEAQAGDQILVMSNGGFEGIHGKLLAALQQK	not soluble
MHIRTTTPVLTSLTSCNFGTASLGDTSPYCMALRPFPLGNTPLHAVIRRSAREFECVEAVPASNAVRSPSTASWVSAESLDSIISLANRTSEEMEVDQLIYRLCRSLYHVAKKKSAQIHCHPNHQERQQQQQQASSSGWRSVECEGHFSNMRGREDWCPLLHLFDPRSYYKVMGQPSQHDGCKLCGDVVGTESSPEGVSQWLMSELSVTRLTGGNSNHVYRLGHASFPKKAVLLRVYGDGGGGDVIDRARDIKVMRLMSKSEMGPGLLHTFHWGRVEEFMDGVLTCTTEKLLTSPSLLADVYGGLSKMHQLDYTPLLPENMRTKGMSNGHNSSQSVSDTVSKSGGGQEGPDGTVGGVNELESTCHTSFERVCLRLLRLVSLNVVEEHRHSLESWLAGEVMFVRRELQYRGIPVVLSHNDLNPGNILLSDGAGEASGTVFSDEELRVENTPLSKRYVTRKGKNMNLVERRGFLFIDFEYADANYRCFDLGNTLCELDYDYTRGTEAGGRGFIKYLFVFPPPAMEEAWRGLGEEYPRMPELIYDAWRRGVCDGSSDIGSVALLAVRRYFAERDNVPLETVELSEAQVGEVLLGMLASHLYWTIWSMTMGSAPDNCVECEDCDDQMFAVGGSGLDYMRYGECRLREYIALRGWLAEKGLLS	not soluble
MHLLPELASHHAVSIPELLVSRDERQARQHAWLKHHPVPLVSFTVVAPGPIKDSEVTRRIFNHRVTALRALATKQGWQIQEQAALVSASGPEGMLSIAAPARDLKLATIELEHSHPLGRLWDIDVLTPEGEILSRRDYSLRLAAACCASKAQPSARVEKPIN	not soluble
MHMSQSTQRAYQEVLDWLEKELRKGSIAIGDKLPGERALAEQFELSRASVREAIRILTSMGLVRTGTGSGPHSGAIVISEPSAGLSWAIRMHLSARSLPLKDLVNTCILIESNAAADAATPKISPDSPERSHVLNEAHRLLDSMDDPTLPFHDYHIKDVNFHILITSLAGNLVTETIMESLRYSAIAFVIERLAMRTDWAEVSEKLQREHRNILRAIEERNPDKARTLVHDHIADFYELTSH	not soluble
MHNSSSSTIGKPLIPQKLPEFLNAYENFIIAGHKEPDGDCIGSCLAMSFFLKRKNKNCILMSAGPFKRTEIKEYEHLFTDKLKISDKINPKTTGLIILDCSNFDRVGEIAELISGFNYIIIDHHATNTEKSDTSLIMPEAPSTTYLIQSIIEEIGEKLTKEEADALFFGLCTDTGFFRHLDAGSAEVFAHASRLIEAGANPKQTFMKINGGKKFESRLLISRILNRMKTYYDGRLVVSYETYDDLLEFGLESRDSDILYQLIQSIEGVEAICIVRQDSPSHCSVGFRSLDKIDVSKIAASFGGGGHKQASGLYIEGKFDDLIPRFVEAFGTQMLEHHHHHH	soluble
MHRCGESSVAGTDARIRLEGNRLFVGGPVTYDNVVEVIRTGDAAIKADDMLIDLAGVTWVDSSAVSMLLEWMRTAQTYDRRIEFINLPSNLADLIELYDVGSLIPTDKPAESV	not soluble
MHSYHNPGVPTALSIFEPLQDGSTISVHGHVRHGHHKNFAVELLSGPNVVLHVNFRFHHEHVVVMNSQFSGMWGPEIRHKNPLHHSEHFHLSIKVHAGYYHISVNGHHLADYPHRYPYQSVQAIGLKGDVHVDKVHFEGFHFQRRWDGHVDHGHSGYNAYGTETYVAPVFVQPNFMPYGAPPPPVQNFNPYR	not soluble
MHTTSSPNETLSSWDSSARREQASKNNIYVTLSAKQHPRILQIYGGAYYNPKLERLLENIVRKLTVGLQNSYKSYSLTILNTQSVNAFALPNGSIYITRGMLTLANDSSEVAAILAHEIAHITANHGILRLQKKAELKTTERISSNLLSLSGEKIHKSIENKRKLAQFSRNQELQADSIALEMLKQAGYDPFSLPRFLQSMAAYSLFRSIPGSQNAPLGFLITHPTTPQRIRLAIEKAHKISSANTGNTDRDAFLKSIDGMIFGGSPHTGFVQNNQFIHPQLGITFSVPQNFIIENSAHTVWASGPDKIAIRFDAIPHPAEISASEYLQSGWLAGLDKSSVHPFIIQGLPGAHARARNAQWQFDVVVILFNNHVLRFLTAAPHDSQNFAEIAEKTVQSFRFLSSSQLKKLKPLRIRIVRVQKGESVASLAKKMQNIPHNEKLFRILNSLSPSQALQTGAAVKIITQLEHHHHHH	not soluble
